Assay results as given in paper PMC13069688.

Columns and labels:
[1] = test system: LacI-Halo WT (Escherichia coli); assay: PBM real-time kinetics (kd/ka); details: PBM: imaging buffer (Na+ + K+ about 30 mM; composition and pH not in the material), EMSA: 1 nM DNA, 0-500 nM LacI (monomer), 1x imaging buffer with 20, 100 or …
[2] = test system: Q55N-LacI-Halo Q55N (Escherichia coli); assay: PBM real-time kinetics (kd/ka); details: PBM: imaging buffer (Na+ + K+ about 30 mM; composition and pH not in the material), EMSA: 1 nM DNA, 0-500 nM LacI (monomer), 1x imaging buffer with 20, 100 or …
[3] = test system: V52A-LacI-Halo V52A (Escherichia coli); assay: PBM real-time kinetics (kd/ka); details: PBM: imaging buffer (Na+ + K+ about 30 mM; composition and pH not in the material), EMSA: 1 nM DNA, 0-500 nM LacI (monomer), 1x imaging buffer with 20, 100 or …
[4] = test system: LacI-Halo WT (Escherichia coli); assay: EMSA; details: NaCl titration; Methods list 20, 100, 200 mM; Kd values only in figure; PBM: imaging buffer (Na+ + K+ about 30 mM; composition and pH not in the material); EMSA: 1 nM DNA, 0-500 nM LacI (monomer), 1x imaging buffer with 20, 100 or …
[5] = test system: Q55N-LacI-Halo Q55N (Escherichia coli); assay: EMSA; details: NaCl titration; Methods list 20, 100, 200 mM; Kd values only in figure; PBM: imaging buffer (Na+ + K+ about 30 mM; composition and pH not in the material); EMSA: 1 nM DNA, 0-500 nM LacI (monomer), 1x imaging buffer with 20, 100 or …

## O1 operator (PBM)
[1]; relative ka 0.66, kd 8.84 ± 0.12 e-4 s-1
  binding signal (KD/WT-KD(Osym)): 6.1
[2]; relative ka 0.35, kd 22.79 ± 0.89 e-4 s-1
  binding signal (KD/WT-KD(Osym)): 28.4
[3]; relative ka 0.72, kd 3.80 ± 0.06 e-4 s-1
  binding signal (KD/WT-KD(Osym)): 2.6

## O2 operator (PBM)
[1]; relative ka 0.42, kd 13.25 ± 0.35 e-4 s-1
  binding signal (KD/WT-KD(Osym)): 14.1
[2]; relative ka 0.12, kd 36.53 ± 3.80 e-4 s-1
  binding signal (KD/WT-KD(Osym)): 140
[3]; relative ka 0.58, kd 4.84 ± 0.10 e-4 s-1
  binding signal (KD/WT-KD(Osym)): 4.1

## Osym 60 bp EMSA probe
[4]
  binding signal (fold KD increase, 50 to 200 mM NaCl): 10
[5]
  binding signal (fold KD increase, 50 to 200 mM NaCl): 2

## Osym operator (PBM)
[1]; reference, kd 2.14 ± 0.03 e-4 s-1
  binding signal (KD/WT-KD(Osym)): 1
[2]; relative ka 0.89, kd 7.39 ± 0.13 e-4 s-1
  binding signal (KD/WT-KD(Osym)): 3.6
[3]; relative ka 1.03, kd 0.89 ± 0.02 e-4 s-1
  binding signal (KD/WT-KD(Osym)): 0.4
